Measured values taken from the supplement of paper PMC5998384.

Tests used:
HeLa Kyoto [1] = assay: thermal stability score vs G1/S (z-score of summed log2 fold changes over temperatures); higher = more thermally stable than in G1/S
HeLa Kyoto [2] = assay: solubility in G1/S (NP-40 vs SDS abundance) (log2 ratio); higher = more soluble; details: cell cycle stage: G1/S
HeLa Kyoto [3] = assay: solubility change mitosis vs G1/S (difference of NP-40 vs SDS log2 ratios) (log2 ratio difference); higher = more soluble in mitosis
HeLa Kyoto [4] = assay: melting temperature (median over replicates), in situ; higher = more thermally stable
[5] = cell cycle stage: early G1 (4.5 h after nocodazole release)
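Throughout, for melting temperature (median over replicates), in situ: HeLa Kyoto cells synchronized by double thymidine or nocodazole block, proteins quantified by TMT10plex mass spectrometry, three independent biological replicates.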
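Throughout, for solubility change mitosis vs G1/S (difference of NP-40 vs SDS log2 ratios): synchronized HeLa Kyoto cells (double thymidine block for G1/S, nocodazole release for mitosis), protein amounts in NP-40 versus SDS lysates quantified by mass spectrometry, three biological replicates.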
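Throughout, for solubility in G1/S (NP-40 vs SDS abundance): HeLa Kyoto cells arrested at G1/S by double thymidine block, proteins quantified by TMT10plex mass spectrometry in mild NP-40 versus SDS extracts, three biological replicates.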
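Throughout, for thermal stability score vs G1/S (z-score of summed log2 fold changes over temperatures): synchronized HeLa Kyoto cells, proteins quantified by TMT10plex mass spectrometry, three biological replicates, mitosis taken 0.5 h after nocodazole release, G1/S directly after double thymidine block.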

| Sequence | thermal stability score (HeLa Kyoto [1]; [5]) | thermal stability score (HeLa Kyoto [1]; cell cycle stage: mitosis) | solubility in G1/S (log2) (HeLa Kyoto [2]) | solubility change mitosis (log2) (HeLa Kyoto [3]) | melting temperature (HeLa Kyoto [4]; cell cycle stage: G1/S) [°C] | melting temperature (HeLa Kyoto [4]; cell cycle stage: mitosis) [°C] |
| --- | --- | --- | --- | --- | --- | --- |
| MEDLDQSPLVSSSDSPPRPQPAFKYQFVREPEDEEEEEEEEEEDEDEDLEELEVLERKPAAGLSAAPVPTAPAAGAPLMDFGNDFVPPAPRGPLPAAPPVAPERQPSWDPSPVSSTVPAPSPLSAAAVSPSKLPEDDEPPARPPPPPPASVSPQAEPVWTPPAPAPAAPPSTPAAPKRRGSSGSVDETLFALPAASEPVIRSSAENMDLKEQPGNTISAGQEDFPSVLLETAASLPSLSPLSAASFKEHEYLGNLSTVLPTEGTLQENVSEASKEVSEKAKTLLIDRDLTEFSELEYSEMGSSFSVSPKAESAVIVANPREEIIVKNKDEEEKLVSNNILHNQQELPTALTKLVKEDEVVSSEKAKDSFNEKRVAVEAPMREEYADFKPFERVWEVKDSKEDSDMLAAGGKIESNLESKVDKKCFADSLEQTNHEKDSESSNDDTSFPSTPEGIKDRSGAYITCAPFNPAATESIATNIFPLLGDPTSENKTDEKKIEEKKAQIVTEKNTSTKTSNPFLVAAQDSETDYVTTDNLTKVTEEVVANMPEGLTPDLVQEACESELNEVTGTKIAYETKMDLVQTSEVMQESLYPAAQLCPSFEESEATPSPVLPDIVMEAPLNSAVPSAGASVIQPSSSPLEASSVNYESIKHEPENPPPYEEAMSVSLKKVSGIKEEIKEPENINAALQETEAPYISIACDLIKETKLSAEPAPDFSDYSEMAKVEQPVPDHSELVEDSSPDSEPVDLFSDDSIPDVPQKQDETVMLVKESLTETSFESMIEYENKEKLSALPPEGGKPYLESFKLSLDNTKDTLLPDEVSTLSKKEKIPLQMEELSTAVYSNDDLFISKEAQIRETETFSDSSPIEIIDEFPTLISSKTDSFSKLAREYTDLEVSHKSEIANAPDGAGSLPCTELPHDLSLKNIQPKVEEKISFSDDFSKNGSATSKVLLLPPDVSALATQAEIESIVKPKVLVKEAEKKLPSDTEKEDRSPSAIFSAELSKTSVVDLLYWRDIKKTGVVFGASLFLLLSLTVFSIVSVTAYIALALLSVTISFRIYKGVIQAIQKSDEGHPFRAYLESEVAISEELVQKYSNSALGHVNCTIKELRRLFLVDDLVDSLKFAVLMWVFTYVGALFNGLTLLILALISLFSVPVIYERHQAQIDHYLGLANKNVKDAMAKIQAKIPGLKRKAE [RTN4] | -0.746 | -1.43 | -0.0792 | -0.155 | 56.6 | 56.7 |
| MEDYLQGCRAALQESRPLHVVLGNEACDLDSTVSALALAFYLAKTTEAEEVFVPVLNIKRSELPLRGDIVFFLQKVHIPESILIFRDEIDLHALYQAGQLTLILVDHHILSKSDTALEEAVAEVLDHRPIEPKHCPPCHVSVELVGSCATLVTERILQGAPEILDRQTAALLHGTIILDCVNMDLKIGKATPKDSKYVEKLEALFPDLPKRNDIFDSLQKAKFDVSGLTTEQMLRKDQKTIYRQGVKVAISAIYMDLEAFLQRSNLLADLHAFCQAHSYDVLVAMTIFFNTHNEPVRQLAIFCPHVALQTTICEVLERSHSPPLKLTPASSTHPNLHAYLQGNTQVSRKKLLPLLQEALSAYFDSMKIPSGQPETADVSREQVDKELDRASNSLISGLSQDEEDPPLPPTPMNSLVDECPLDQGLPKLSAEAVFEKCSQISLSQSTTASLSKK [PRUNE] | 0.764 | 0.775 | 0.182 | -0.0758 | 50.3 | 49.6 |
| MEEAELVKGRLQAITDKRKIQEEISQKRLKIEEDKLKHQHLKKKALREKWLLDGISSGKEQEEMKKQNQQDQHQIQVLEQSILRLEKEIQDLEKAELQISTKEEAILKKLKSIERTTEDIIRSVKVEREERAEESIEDIYANIPDLPKSYIPSRLRKEINEEKEDDEQNRKALYAMEIKVEKDLKTGESTVLSSIPLPSDDFKGTGIKVYDDGQKSVYAVSSNHSAAYNGTDGLAPVEVEELLRQASERNSKSPTEYHEPVYANPFYRPTTPQRETVTPGPNFQERIKIKTNGLGIGVNESIHNMGNGLSEERGNNFNHISPIPPVPHPRSVIQQAEEKLHTPQKRLMTPWEESNVMQDKDAPSPKPRLSPRETIFGKSEHQNSSPTCQEDEEDVRYNIVHSLPPDINDTEPVTMIFMGYQQAEDSEEDKKFLTGYDGIIHAELVVIDDEEEEDEGEAEKPSYHPIAPHSQVYQPAKPTPLPRKRSEASPHENTNHKSPHKNSISLKEQEESLGSPVHHSPFDAQTTGDGTEDPSLTALRMRMAKLGKKVI [PALMD] | -0.598 | 0.967 | 0.412 | 0.124 | 53.2 | 53.1 |
| MEEEGLECPNSSSEKRYFPESLDSSDGDEEEVLACEDLELNPFDGLPYSSRYYKLLKEREDLPIWKEKYSFMENLLQNQIVIVSGDAKCGKSAQVPQWCAEYCLSIHYQHGGVICTQVHKQTVVQLALRVADEMDVNIGHEVGYVIPFENCCTNETILRYCTDDMLQREMMSNPFLGSYGVIILDDIHERSIATDVLLGLLKDVLLARPELKLIINSSPHLISKLNSYYGNVPVIEVKNKHPVEVVYLSEAQKDSFESILRLIFEIHHSGEKGDIVVFLACEQDIEKVCETVYQGSNLNPDLGELVVVPLYPKEKCSLFKPLDETEKRCQVYQRRVVLTTSSGEFLIWSNSVRFVIDVGVERRKVYNPRIRANSLVMQPISQSQAEIRKQILGSSSSGKFFCLYTEEFASKDMTPLKPAEMQEANLTSMVLFMKRIDIAGLGHCDFMNRPAPESLMQALEDLDYLAALDNDGNLSEFGIIMSEFPLDPQLSKSILASCEFDCVDEVLTIAAMVTAPNCFSHVPHGAEEAALTCWKTFLHPEGDHFTLISIYKAYQDTTLNSSSEYCVEKWCRDYFLNCSALRMADVIRAELLEIIKRIELPYAEPAFGSKENTLNIKKALLSGYFMQIARDVDGSGNYLMLTHKQVAQLHPLSGYSITKKMPEWVLFHKFSISENNYIRITSEISPELFMQLVPQYYFSNLPPSESKDILQQVVDHLSPVSTMNKEQQMCETCPETEQRCTLQ [DHX32] | -0.0722 | 0.258 | -0.155 | -0.152 | 49.4 | 50 |
| MEEGGGGVRSLVPGGPVLLVLCGLLEASGGGRALPQLSDDIPFRVNWPGTEFSLPTTGVLYKEDNYVIMTTAHKEKYKCILPLVTSGDEEEEKDYKGPNPRELLEPLFKQSSCSYRIESYWTYEVCHGKHIRQYHEEKETGQKINIHEYYLGNMLAKNLLFEKEREAEEKEKSNEIPTKNIEGQMTPYYPVGMGNGTPCSLKQNRPRSSTVMYICHPESKHEILSVAEVTTCEYEVVILTPLLCSHPKYRFRASPVNDIFCQSLPGSPFKPLTLRQLEQQEEILRVPFRRNKEEDLQSTKEERFPAIHKSIAIGSQPVLTVGTTHISKLTDDQLIKEFLSGSYCFRGGVGWWKYEFCYGKHVHQYHEDKDSGKTSVVVGTWNQEEHIEWAKKNTARAYHLQDDGTQTVRMVSHFYGNGDICDITDKPRQVTVKLKCKESDSPHAVTVYMLEPHSCQYILGVESPVICKILDTADENGLLSLPN [ERLEC1] | 1.6 | 0.429 | 0.0171 | -0.0947 | 54.1 | 54 |
| MEELDGEPTVTLIPGVNSKKNQMYFDWGPGEMLVCETSFNKKEKSEMVPSCPFIYIIRKDVDVYSQILRKLFNESHGIFLGLQRIDEELTGKSRKSQLVRVSKNYRSVIRACMEEMHQVAIAAKDPANGRQFSSQVSILSAMELIWNLCEILFIEVAPAGPLLLHLLDWVRLHVCEVDSLSADVLGSENPSKHDSFWNLVTILVLQGRLDEARQMLSKEADASPASAGICRIMGDLMRTMPILSPGNTQTLTELELKWQHWHEECERYLQDSTFATSPHLESLLKIMLGDEAALLEQKELLSNWYHFLVTRLLYSNPTVKPIDLHYYAQSSLDLFLGGESSPEPLDNILLAAFEFDIHQVIKECSIALSNWWFVAHLTDLLDHCKLLQSHNLYFGSNMREFLLLEYASGLFAHPSLWQLGVDYFDYCPELGRVSLELHIERIPLNTEQKALKVLRICEQRQMTEQVRSICKILAMKAVRNNRLGSALSWSIRAKDAAFATLVSDRFLRDYCERGCFSDLDLIDNLGPAMMLSDRLTFLGKYREFHRMYGEKRFADAASLLLSLMTSRIAPRSFWMTLLTDALPLLEQKQVIFSAEQTYELMRCLEDLTSRRPVHGESDTEQLQDDDIETTKVEMLRLSLARNLARAIIREGSLEGS [NUP85] | -2.34 | -4.7 | -0.6 | 0.246 | 52.3 | 50.8 |
